From patent US20120180150A1 (published 2012)

Target: T1, mouse IP3R1 full length with C-terminal GFP (mouse, UniProt P11881 1-2749)
T1 construct: also called IP3R1-GFP; IP3R-GFP protein; not shown: C-terminal GFP of the pEGFP-N1 vector, with any linker from the cloning site
Assay: HA-matrix co-immunoprecipitation from HEK 293 cells, anti-GFP Western blot
Experimental: Into HEK 293 cells, a full length IP3R1-GFP expression plasmid and each of the KRAP full length, the deletion mutants, or the point-mutant expression plasmids were introduced together with lipofectamine LTX (Invitrogen), respectively, and the resulting cells were incubated for 24 hours. They were then homogenized in an extracting buffer (50 mM Tris-HCl, pH7.5, 140 mM NaCl, 0.5% NP40, 0.25M NDSB-201 (Calbiochem), and protease inhibitors (Complete EDTA-free, Roche)), and the homogenized mixture was centrifuged at 15,000 rpm for 30 minutes. The resulting supernatant was then subjected to immunoprecipitation with HA matrix (Roche) to precipitate the IP3R-GFP protein binding to the KRAP protein, and the precipitated IP3R-GFP protein was detected by Western blots using a rabbit polyclonal antibody (Clonetech) as an anti-GFP antibody. In the experiment using HCT 116 cells, the presence or absence of co-precipitation of the endogenous IP3R protein was investigated without transfection of the IP3R-GFP protein using a mouse monoclonal antibody (BD Transduction Laboratory) as an anti-IP3R3 antibody.

T1 sequence (P11881 whole entry S1044R/E1045K): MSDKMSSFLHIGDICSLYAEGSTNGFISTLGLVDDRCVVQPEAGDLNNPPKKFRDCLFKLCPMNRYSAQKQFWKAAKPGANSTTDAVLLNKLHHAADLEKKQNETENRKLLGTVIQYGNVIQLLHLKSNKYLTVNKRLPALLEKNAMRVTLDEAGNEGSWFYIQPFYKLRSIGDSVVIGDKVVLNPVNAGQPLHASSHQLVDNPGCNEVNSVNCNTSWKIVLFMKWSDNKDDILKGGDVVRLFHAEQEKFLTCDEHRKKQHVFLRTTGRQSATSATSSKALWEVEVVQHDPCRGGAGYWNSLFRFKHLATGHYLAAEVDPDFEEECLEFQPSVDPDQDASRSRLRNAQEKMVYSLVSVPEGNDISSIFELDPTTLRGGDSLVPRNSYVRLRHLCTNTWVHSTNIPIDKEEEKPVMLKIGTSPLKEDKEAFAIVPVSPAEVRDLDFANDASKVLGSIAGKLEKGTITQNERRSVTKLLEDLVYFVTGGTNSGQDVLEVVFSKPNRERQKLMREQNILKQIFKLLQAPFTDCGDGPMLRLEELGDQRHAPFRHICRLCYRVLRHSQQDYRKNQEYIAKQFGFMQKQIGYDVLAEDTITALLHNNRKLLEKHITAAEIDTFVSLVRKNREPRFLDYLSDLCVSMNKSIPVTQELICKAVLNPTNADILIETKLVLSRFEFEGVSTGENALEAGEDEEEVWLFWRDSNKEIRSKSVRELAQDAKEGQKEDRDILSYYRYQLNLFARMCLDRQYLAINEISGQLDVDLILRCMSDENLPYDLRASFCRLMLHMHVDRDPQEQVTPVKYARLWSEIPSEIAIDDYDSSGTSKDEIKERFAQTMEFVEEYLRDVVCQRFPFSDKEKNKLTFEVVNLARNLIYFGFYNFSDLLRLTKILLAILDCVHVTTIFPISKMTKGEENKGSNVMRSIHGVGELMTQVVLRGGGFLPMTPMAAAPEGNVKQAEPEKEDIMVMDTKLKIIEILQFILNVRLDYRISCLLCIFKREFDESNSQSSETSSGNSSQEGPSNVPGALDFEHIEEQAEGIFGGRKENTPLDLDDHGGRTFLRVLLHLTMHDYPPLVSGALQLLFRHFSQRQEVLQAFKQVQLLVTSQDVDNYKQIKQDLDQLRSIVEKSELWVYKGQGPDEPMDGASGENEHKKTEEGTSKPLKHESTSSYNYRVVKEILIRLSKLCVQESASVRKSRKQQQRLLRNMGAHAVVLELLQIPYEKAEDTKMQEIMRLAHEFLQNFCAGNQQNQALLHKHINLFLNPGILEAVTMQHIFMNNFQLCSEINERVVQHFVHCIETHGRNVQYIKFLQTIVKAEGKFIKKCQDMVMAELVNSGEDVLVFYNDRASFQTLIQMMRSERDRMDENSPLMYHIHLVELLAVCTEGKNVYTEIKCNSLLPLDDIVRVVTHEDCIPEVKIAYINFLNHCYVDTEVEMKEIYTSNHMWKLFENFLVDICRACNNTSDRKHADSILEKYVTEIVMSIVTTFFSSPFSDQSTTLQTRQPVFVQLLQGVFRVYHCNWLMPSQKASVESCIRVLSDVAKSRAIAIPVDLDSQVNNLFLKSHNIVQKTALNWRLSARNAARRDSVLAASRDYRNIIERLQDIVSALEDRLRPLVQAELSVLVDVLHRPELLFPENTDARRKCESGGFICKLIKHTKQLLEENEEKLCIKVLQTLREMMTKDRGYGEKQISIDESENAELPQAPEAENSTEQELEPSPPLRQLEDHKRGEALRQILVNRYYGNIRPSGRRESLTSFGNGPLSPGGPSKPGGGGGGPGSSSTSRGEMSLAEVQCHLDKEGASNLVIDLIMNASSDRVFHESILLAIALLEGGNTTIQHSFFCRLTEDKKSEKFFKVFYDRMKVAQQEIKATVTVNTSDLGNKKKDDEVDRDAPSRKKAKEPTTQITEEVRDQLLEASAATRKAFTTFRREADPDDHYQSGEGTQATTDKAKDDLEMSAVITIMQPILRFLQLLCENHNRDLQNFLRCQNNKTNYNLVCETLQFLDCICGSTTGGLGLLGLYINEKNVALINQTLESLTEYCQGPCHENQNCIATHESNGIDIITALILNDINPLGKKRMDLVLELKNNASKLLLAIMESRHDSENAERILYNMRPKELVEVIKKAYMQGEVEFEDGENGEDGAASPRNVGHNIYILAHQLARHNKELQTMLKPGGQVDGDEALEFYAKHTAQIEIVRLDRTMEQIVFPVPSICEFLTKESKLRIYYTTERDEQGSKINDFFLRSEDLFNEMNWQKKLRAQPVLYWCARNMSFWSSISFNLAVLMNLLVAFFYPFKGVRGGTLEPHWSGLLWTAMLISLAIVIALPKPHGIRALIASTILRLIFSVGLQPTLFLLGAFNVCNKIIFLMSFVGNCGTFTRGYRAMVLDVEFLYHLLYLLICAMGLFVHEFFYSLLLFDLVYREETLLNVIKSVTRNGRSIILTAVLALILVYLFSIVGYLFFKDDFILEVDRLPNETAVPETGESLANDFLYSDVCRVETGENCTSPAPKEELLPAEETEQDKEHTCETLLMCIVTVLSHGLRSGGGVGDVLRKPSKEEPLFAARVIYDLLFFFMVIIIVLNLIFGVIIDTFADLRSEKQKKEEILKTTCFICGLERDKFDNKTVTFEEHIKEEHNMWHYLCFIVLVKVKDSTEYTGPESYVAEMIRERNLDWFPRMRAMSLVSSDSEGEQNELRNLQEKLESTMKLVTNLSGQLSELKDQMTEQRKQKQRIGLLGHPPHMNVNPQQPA

B1: mouse KRAP deletion mutant composed of the coiled-coil region only (988-1252), N-terminal HA tag (other)
chain: HMTEEDRYEVDQLQGLRNSVRMELQDLEMQLEERLLGLDEQLRAVRVPSPFRPSALPGMCGSRSVDNLSCPSPLNVMEPVTELMREQSYLKSELGLGLGDMAYEIPPGESSESVFSQATSESSSVCSSPSHTNRRSRGLPGSKPRARLVARKKIFRASVALTPTAPSRTGSVQTPPDLESSEEAGGAEEASPVVGLASHVEEEPEDLSLMPAAEEMHRNVEQDELQQVIREIKESIVGEIRREIVSGLLAAVASSKAPGPKQDSH
notes: not shown: N-terminal HA tag of the pCMV-HA vector
binding result: no binding
